{
  "source": "the DeepSol protein solubility set",
  "experiment": "soluble on expression in E. coli; label from the status in PepcDB or PDB records",
  "data": [
    {"sequence": "TFRLVIACPDGVGIVAKVSNFLATYNGWITEASHHSDNDNGWFFMRHEIRADSLPFDLDGFRQAFAPIAREFSMEWRITDSEVKKRVVLMASKESHCLADLLHRWHSGELDCEIPCVIANHDDLRSMVEWHGIPYFHVPVDPQDKQPAFDEVSRLIDEHGADCIVLARYMQILPPDLCRKYAHQVINIHHSFLPSFIGAKPYHQASKRGVKLIGATSHYVTEELDAGPIIEQDVVRVTHRDNVEDMVRLGKDVEKLVLARGLRYHLEDRVLVH", "values": [
      {"measurement": "soluble on expression in E. coli", "result": "not soluble"}
    ]},
    {"sequence": "MTGNAKLIDRVSAINWNRLQDEKDAEVWDRLTGNFWLPEKVPVSNDIPSWGTLTAGEKQLTMRVFTGLTMLDTIQGTVGAVSLIPDALTPHEEAVLTNIAFMESVHAKSYSQIFSTLCSTAEIDDAFRWSEENRNLQRKAEIVLQSYRGDEPLKRKVASTLLESFLFYSGFYLPMYWSSRAKLTNTADMIRLIIRDEAVHGYYIGYKFQRGLALVDDVTRAELKDYTYELLFELYDNEVEYTQDLYDEVGLTEDVKKFLRYNANKALMNLGYEALFPRDETDVNPAILSALSPNAD", "values": [
      {"measurement": "soluble on expression in E. coli", "result": "soluble"}
    ]},
    {"sequence": "MATIHPPAYLLDQAKRRFTPSFNNFPGMSLVEHMLLNTKFPEKKLAEPPPGSGLKPVVGDAGLPILGHMIEMLRGGPDYLMFLYKTKGPVVFGDSAVLPGVAALGPDAAQVIYSNRNKDYSQQGWVPVIGPFFHRGLMLLDFEEHMFHRRIMQEAFVRSRLAGYLEQMDRVVSRVVADDWVVNDARFLVYPAMKALTLDIASMVFMGHEPGTDHELVTKVNKAFTITTRAGNAVIRTSVPPFTWWRGLRARELLENYFTARVKERREASGNDLLTVLCQTEDDDGNRFSDADIVNHMIFLMMAAHDTSTSTATTMAYQLAAHPEWQQRCRDESDRHGDGPLDIESLEQLESLDLVMNESIRLVTPVQWAMRQTVRDTELLGYYLPKGTNVIAYPGMNHRLPEIWTDPLTFDPERFTEPRNEHKRHRYAFTPFGGGVHKCIGMVFDQLEIKTILHRLLRRYRLELSRPDYQPRWDYSAMPIPMDGMPIVLRPR", "values": [
      {"measurement": "soluble on expression in E. coli", "result": "not soluble"}
    ]},
    {"sequence": "MGSDKIHHHHHHMIVEKVLIVDPIDGEFTGDVEIEEGKIVKVEKRECIPRGVLMPGFVDPHIHGVVGADTMNCDFSEMEEFLYSQGVTTFLATTVSTSLEKMKEILRKARDYILENPSTSLLGVHLEGPYISKEKKGAHSEKHIRPPSERELSEIDSPAKMLTFAPEIESSELLLRLVKRDIVLSAGHSIATFEEFMKFYKEGVKRITHFPNGLKPLHHREIGITGAGLLLDDVKLELICDGVHLSREMVKLVYKVKKANGIVLVTDSISAAGLKDGTTTLGDLVVKVKDGVPRLEDGTLAGSTLFFSQAVKNFRKFTGCSITELAKVSSYNSCVELGLDDRGRIAEGTRADLVLLDEDLNVVMTIKEGEVVFRSR", "values": [
      {"measurement": "soluble on expression in E. coli", "result": "soluble"}
    ]},
    {"sequence": "MGSDKIHHHHHHMSLAVTYTRAMIGVQAPDVYIEVHISSGLPALTLVGLPETTVKEARDRVRSALINCGFTFPAKRITVNLAPADLPKEGGRYDLPIALAILAASEQIDGEKLNRYEFLGELGLSGTLRGVNGAIPAALEAIKAGRQLILPDDNKREMTLIPQGEALMAGHLLQVCAFLSGEEELLSCSDMTPVPQPAEDTLDLKDIIGQEQAKRALEIAAAGGHNLLLLGPPGTGKTMLASRLGNLMPPLSDEEALESAAINSLINIDATMTRWRARPFRAPHHSSSMAALVGGGSLPKPGEISLAHNGVLFLDELPEFERRVLDSLREPLESGEIIISRTRAKVCYPARVQLVAAMNPSPSGHYQGIHNRLPAQQILRYLSKLSGPFLDRFDLSIEVPLLPPGVLSQQHYQGESSATIRERVLIARQIQLKRANKINALLTSREIERHCKLEMADAAYLEDVMNKLGLSVRAWHRILKVARTIADLGDRDNIEKKHLAEALSYRCMDRLLIQLHKSLE", "values": [
      {"measurement": "soluble on expression in E. coli", "result": "not soluble"}
    ]},
    {"sequence": "MGSDKIHHHHHHMECVFGIDVSKENANVAVLVDNVVIKQFKIGLDRLGFSLLSDELNSFNAPLIIYEATAMYSRRLRAFLQRDGWKYTELNPLAAKKVMEEFRHTKTDALDAVGLARAMIKNHFRPTYQESPVYTELHDLERTYQQFNKDIVTNKNRLHRALQLTFPEIEHFMSSTDGVLYWHIVQRFPHPAIVLSHEENELTEIILTETSKKIGLKRAMKLANRLLALAQNSAPAKEPQSHAVRAVIALAKEVERINQLKAQIIVEMTTLGENLSEVPLLVSIPGIGIKTALCLIAELGDVRRFHSANAINAYIGIDLIRYESGQYEAKMHIRKRGNPYVRKILYRAILNIISVSQYQPTLISANYKRKKQSAQSHGTKKIAIAAMSQFNRLMHHLILNNELYDSTTFMPE", "values": [
      {"measurement": "soluble on expression in E. coli", "result": "not soluble"}
    ]},
    {"sequence": "MVDMKTTHTSLPFAGHTLHFVEFDPANFCEQDLLWLPHYAQLQHAGRKRKTEHLAGRIAAVYALREYGYKCVPAIGELRQPVWPAEVYGSISHCGATALAVVSRQPIGVDIEEIFSAQTATELTDNIITPAEHERLADCGLAFSLALTLAFSAKESAFKASEIQTDAGFLDYQIISWNKQQVIIHRENEMFAVHWQIKEKIVITLCQHD", "values": [
      {"measurement": "soluble on expression in E. coli", "result": "not soluble"}
    ]},
    {"sequence": "SGRLSVSRQNFEVHKHLNRLNKPAVKSIQSPDGDIIDCVHISKQPAFDHPFLKDHKIQMGPSYTPESLFGESKVSEKPKESVNPITQLWHQNGVCSEGTIPVRRTKKEDVLRASSVKRYGKKKHLSVPLPRSADPDLINQSGHQHAIAYVEGGKFYGAKATINVWEPKVQSSNEFSLSQLWILGGSFGQDLNSIEAGWQVSPDLYGDNNTRLFTYWTSDAYQATGCYNLLCSGFIQINSQIAMGASISPVSGFHNPQYDISITIWKDPKEGHWWMQFGDGYVLGYWPSFLFSYLADSASIVEWGGEVVNMEEDGHHTTTQMGSGQFPDEGFTKASYFRNIQVVDSSNNLKEPKGLNTFTEKSNCYDVEVGKNDDWGHYFYYGGPGRNPNCQ", "values": [
      {"measurement": "soluble on expression in E. coli", "result": "soluble"}
    ]},
    {"sequence": "MGSDKIHHHHHHVRVLAIRHVEIEDLGMMEDIFREKNWSFDYLDTPKGEKLERPLEEYSLVVLLGGYMGAYEEEKYPFLKYEFQLIEEILKKEIPFLGICLGSQMLAKVLGASVYRGKNGEEIGWYFVEKVSDNKFFREFPDRLRVFQWHGDTFDLPRRATRVFTSEKYENQGFVYGKAVGLQFHIEVGARTMKRWIEAYKDELEKKKIDPRLLLETAEREEKVLKGLLRSLLERMVES", "values": [
      {"measurement": "soluble on expression in E. coli", "result": "soluble"}
    ]},
    {"sequence": "MNNLPLLNDLRVFMLVARRAGFAAAAEELGVSPAFVSKRVSLLEQTLNVMLLHRTTRRVTITEEGERIYEWAQRILQDVDEMMDELSDVRQVPQGTLRIISSFGFGRRVVAPALSALALQYPQLELRFDVQDRLVDLVNEGVDLDIRVGDDIAPNLIARQLAANHRVLCASPQFLARHAPPKQLSDLAALPCLVIKERDHPFGVWQLHSKEGQHAIKVTGPLSSNHGEIVHQWCLDGQGIALRSWWDVRENIASGHLVQVLPDYWQPANVWAVYVSRLATSAKIRTTVEFLRHYFQLHYPQHEPTASAVGRGD", "values": [
      {"measurement": "soluble on expression in E. coli", "result": "not soluble"}
    ]},
    {"sequence": "MAHHHHHHMGTLEAQTQGPGSMNLDNVTGGDNVPKEINVIIEISQNSCPVKYEFDKEKNLFCVDRFLPTSMYYPCNYGFIPHTCAGDGDPVDVLVASRFPVMSGAVIRARPVGVLVMHDESGEDVKILAVPTHKVDQYYNNIKDYSDFPVSFLNSISHFFTFYKKLEEDKFVSVEGWKDVTVAEKLILSALIK", "values": [
      {"measurement": "soluble on expression in E. coli", "result": "soluble"}
    ]},
    {"sequence": "MYKQIILACDGSEHALRAAEHATYIAKCSEETNVEVVYVVDNRTAKSDIIQGQTDLETISASRKDKLKEIEGLLKKENISYTITILHGDPGDTIVQYVNTGDIDLVIAGSRGLNTLQEMVLGSVSHKIAKRVKCPVMIVK", "values": [
      {"measurement": "soluble on expression in E. coli", "result": "not soluble"}
    ]},
    {"sequence": "GSHMASRTPKKLSNIALTKETRQSSTDYNGFSRLAVDGNKNGDYGHHSVTHTKEDSPSWWEIDLAQTEELEKLIIYNRTDAEIQRLSNFDIIIYDSNDYEVFTQHIDSLESNNLSIDLKGLKGKKVRISLRSAGIPLSLAEVEVYTYK", "values": [
      {"measurement": "soluble on expression in E. coli", "result": "soluble"}
    ]},
    {"sequence": "MAGTGHTPEEALALLKRGAEEIVPEEELLAKLKEGRPLTVKLGADPTRPDLHLGHAVVLRKMRQFQELGHKVVLIIGDFTGMIGDPSGRSKTRPPLTLEETRENAKTYVAQAGKILRQEPHLFELRYNSEWLEGLTFKEVVRLTSLMTVAQMLEREDFKKRYEAGIPISLHELLYPFAQAYDSVAIRADVEMGGTDQRFNLLVGREVQRAYGQSPQVCFLMPLLVGLDGREKMSKSLDNYIGLTEPPEAMFKKLMRVPDPLLPSYFRLLTDLEEEEIEALLKAGPVPAHRVLARLLTAAYALPQIPPRIDRAFYESLGYAWEAFGRDKEAGPEEVRRAEARYDEVAKGGIPEEIPEVTIPASELKEGRIWVARLFTLAGLTPSNAEARRLIQNRGLRLDGEVLTDPMLQVDLSRPRILQRGKDRFVRVRLSD", "values": [
      {"measurement": "soluble on expression in E. coli", "result": "soluble"}
    ]}
  ]
}
